# Ends that are not written are not given here.
# B1: Os018989-4003 aa 9-179 (other)
# chain: AAAASAAPGLANLLIREGAGLPSRPERYPPFRPCTSDSFAPISREGDDIPPQKKSVSLRSGGGGNAAEREEGGANRNGKKEKTGAQRITGWGLREFSKIVSKKVEAKGRTTYNEVADEIFAELKSITQNGLEFDEKNIRRRVYDAFNVLIAIRVIAKDKKEIKWMGLTNYR
# notes: prey, AD fusion; also called PN21044; Hypothetical Protein 018989-4003, Similar to Triticum sp; DP Protein
# B2: Os018989-4003 aa 177-294 (other)
# chain: NYRYEKIQKLEEVHKELITRIKNKKKLLQEIEKQFDDLQNITLRNQASQRPAESVNGILLPFLLIKTSRKARVEIEISEDSKFARFDFNGAPFTMHDDVSILEAIRRNKGRAGLSIHP
# notes: prey, AD fusion; also called PN21044
# B3: PN25358 aa 303-472 (other)
# chain: VSASEFYSQSAIYVAAAHALKPNYSVYRSALRLVRSMLPLPYLKVGYLIAPPENSAIAPHKEWERSQFVLNHEELQQVNASDQPPSQSPGHVDSGRKLFRIVVADIVSVSACADLTLPPGAGLRIDTIHGPRFLVADNWETIDSWLDAIRLVYTIFARGRSDVLAGIITG
# notes: prey, AD fusion; also called Hypothetical Protein AAK39589
# B4: OsPN22823 aa 25-106 (other)
# chain: SSSGKKVPLFSLFRYADRLDVLLMVVGTVGALGNGISQPLMTVLFGNVINSFGANTSGSVLRSVTKVKVSCWTMAGERQSAR
# notes: prey, AD fusion; also called Novel Protein PN22823, Similar to ABC Transporter Proteins
# B5: OsPN29041 aa 5-108 (other)
# chain: VQIRRALRALVDDHTDGLMDFEDTEVRSSEETDALEEARLAIEQVVIPKGESVQLLPRPPSIIASQVDLVESFKLKWESIGQEPNACLRILPQFVGVEEGGKSV
# notes: prey, AD fusion; also called Novel Protein PN29041, Fragment, Similar to A. thaliana Putative ATPase
# B6: OsPN22020 aa 76-170 (other)
# chain: ANATDGVKPLVGSARLPLRDVLADTGIGARASRSLRLKRPSGRPHGRLEVRVAVREPKRYYDPSPAYPAPYHQQTNRDPYAYGNTTTGGYGYAYG
# notes: prey, AD fusion; also called Novel Protein PN22020, Fragment, Similar to A. thaliana Putative Protein
# B7: OsPN23484 aa 111-194 (other)
# chain: GREDREREVQEELASLSDLAASYHSRLQSHGIDPDSFSDDGEEEQHDEEDGEEVEQIDTAALQTDGSSGGDSIGGMQVKAMVDD
# notes: prey, AD fusion; also called Novel Protein PN23484, heavy meromyosin
# B8: OsPN29942 aa 11-182 (other)
# chain: VDTSNEIKEIVIDDMEPKVFQAGFLFMYRDNLVGDDELSASSSDCSIFDTLAGKLLAAADRYELPRLRLLCESYLCKHISVNSVATTLALADRHHAMELKSVCLKFAAENLSAVIRTDGFDYLKDNCPALQSEILRTVAGCEEECSSGGKSQSVWGQLSDGGDTSGRRVRPR
# notes: prey, AD fusion; also called Novel Protein PN29942, Fragment, zinc finger protein
# B9: OsAAK63900 aa 122-224 (other)
# chain: AAVAGKTHYRSALCASVTICGPIKKKIIDHFHKKPVPPKPEPKPEPPKPKPEPEHPFLDHIHKKEKHFFDHFHKKPVPPKPEPKPEPKPQPAPEYHNPSPPAN
# notes: prey, AD fusion; also called PN23266; O. sativa Putative Proline-Rich Protein AAK63900
# B10: OsORF020300-2233.2 aa 93-387 (other)
# chain: LLVPYYLGEMTERVAQEDRIPVLKASQDHLKEFISICEALELISEDELELSRQKQPDTMANRRAQKAARFKRQKAAETKLLEIKERKERRRRSLRAAALSAPIEAGEEDAFEDDGEEEREAWLATISLALCKAFDLLDMLKKEEEMLLAVKERQAKDGNAFAREMLDERTKKAEAWHHNAANRAPYSKPADPITCATFAQDVIEGRASVSQAHEHKHQPLIFGPASLVGGGLTSERERMAAQVFQPSYRLPTMSIEEAGLREMKMMEKWQERTAKMIQESNSAWHKDGSRSAQED
# notes: prey, AD fusion; also called PN21639; Hypothetical Protein ORF020300-2233.2, Putative PP2A Regulatory Subunit, Similar to OsCAA90866
# B11: OsORF020300-2233.2 aa 118-388 (other)
# chain: SQDHLKEFISICEALELISEDELELSRQKQPDTMANRRAQKAARFKRQKAAETKLLEIKERKERRRRSLRAAALSAPIEAGEEDAFEDDGEEEREAWLATISLALCKAFDLLDMLKKEEEMLLAVKERQAKDGNAFAREMLDERTKKAEAWHHNAANRAPYSKPADPITCATFAQDVIEGRASVSQAHEHKHQPLIFGPASLVGGGLTSERERMAAQVFQPSYRLPTMSIEEAGLREMKMMEKWQERTAKMIQESNSAWHKDGSRSAQEDE
# notes: prey, AD fusion; also called PN21639
# B12: OsPN23268 aa 12-200 (other)
# chain: SEEEAEATLRLLLEEENEARIAAFLVLLRAKGETYEEIVGLAKAMIGCCVRVDGLDDAVDIVGTGGDGADTVNISTGSTILAAAAGAKVAKQGSRASSSACGSADGIKRCVNEVGVGFMMSANYHPAMKIVKPVRKKLKIKTVFNILGPLLNPARVPYAVIGVYHENIVTKMAKAAQKFGMKRALVVHS
# notes: prey, AD fusion; also called Novel Protein 23268, Similar to Phosphoribosylanthranilate Transferase, Chloroplast Precursor, Fragment
# B13: OsPN29957 aa 51-288 (other)
# chain: PRVLALTVKQSTKGEAAKAFLRVLKYSSGAVLEPAKLYKLKHLTKVEVISNDPSGCTFVLGFDNLRSQSVAPPQWTMRNIDDRNRLLFSILTMCKEILSYLPKVVGIDFVELALWAKENTVTLDNQSSTQDGQEKSVTTQTERKVTVTVENDLGSQAKDEEEDMEALLDTYVMGIGEADAFSERLKQELVALEAANVYQLLQSEPLIDEVLQGLDAASATVDDMDEWLRIFNMKLRHM
# notes: prey, AD fusion; also called Novel Protein PN29957, Fragment, unknown
# B14: OsPN26645 aa 24-164 (other)
# chain: PLPEACPVPTAAEEILGPGGTCTTLDRRGDPVGVIEGDEVTLAKAITLLHMNKDDYIAVLFYASWCPFSQECKPNFEILASLFPSIRHFAFEESSIRPSIISRYGIHGFPTLFLLNSTMRVRYHGPRTVKSLAAFYRDVSG
# notes: prey, AD fusion; also called Novel Protein PN26645, Putative Protein Disulfide Isomerase-Related Protein Precursor
# B15: OsCAA90866 aa 1-126 (other)
# chain: MVEVEEVSNKMQVQMRLHPAAAAEEEDADLPLPALFDKASHLHSLASSSSLDQEGIRKGVDLLRRCDEMVSKVGLFSSNETKDDISTANLKYLLVPYYLGEMTERVAQEDRIPVLKASQDHLKEFI
# notes: prey, AD fusion; also called PN20311
# B16: OsPN29957 aa 28-214 (other)
# chain: EVSFSIRVAKGRGIFEKLGRLAKPRVLALTVKQSTKGEAAKAFLRVLKYSSGAVLEPAKLYKLKHLTKVEVISNDPSGCTFVLGFDNLRSQSVAPPQWTMRNIDDRNRLLFSILTMCKEILSYLPKVVGIDFVELALWAKENTVTLDNQSSTQDGQEKSVTTQTERKVTVTVENDLGSQAKDEEEDM
# notes: prey, AD fusion
# B17: OsPN26539 aa 66-346 (other)
# chain: DDAPSSQPATSKKKKRGPGTRATGPDKGGRGLRQFSMKVCEKVESKGRTTYNEVADELVAEFADPNNNFASPDPDNPNTPQFDEKNIRRRVYDALNVLMAMDIISKDKKEIQWKGLPRTSMSDVEELKTEIIGLKGRIDKKNAYLQELEDQFVGLQNLAQRNEQLYGSGNAPSGGVALPFILVQTRPHATVEVEISEDMQLVHFDFNSTPFELHDDSFVLKALGFSGKEPDDTQAWVGNGGECSTTPIYHQSPQVARPNGVRLPTSPPIPGILKGRVKHEH
# notes: prey, AD fusion; also called Novel Protein PN26539, Probable DP
# B18: OsPN26539 aa 194-346 (other)
# chain: TEIIGLKGRIDKKNAYLQELEDQFVGLQNLAQRNEQLYGSGNAPSGGVALPFILVQTRPHATVEVEISEDMQLVHFDFNSTPFELHDDSFVLKALGFSGKEPDDTQAWVGNGGECSTTPIYHQSPQVARPNGVRLPTSPPIPGILKGRVKHEH
# notes: prey, AD fusion
# B19: OsPN26539 aa 82-253 (other)
# chain: GPGTRATGPDKGGRGLRQFSMKVCEKVESKGRTTYNEVADELVAEFADPNNNFASPDPDNPNTPQFDEKNIRRRVYDALNVLMAMDIISKDKKEIQWKGLPRTSMSDVEELKTEIIGLKGRIDKKNAYLQELEDQFVGLQNLAQRNEQLYGSGNAPSGGVALPFILVQTRPH
# notes: prey, AD fusion
# B20: OsPN29967 aa 16-174 (other)
# chain: PPTRRALTLTLTLTLLLSLAMSEPASPPPAMPEDAAPPQPQPEPAVPAGEEAAPSLERKEELLPVEEKISELDESQSQLMGRLRGLKEDLLNWRSSLDTQVTKYKSELSDIKTALNSEIEQLRSDFQELRTTLKKQQEDVSNSLKNLGLQDATDNDGNK
# notes: prey, AD fusion; also called Novel Protein PN29967, Fragment, unknown
# B21: OsPN29968 aa 12-113 (other)
# chain: LVNNEDVVAIKQMQHLILGRLQDSNAVLTHFNEYSEQCFAEVSNDFAGKTRLLKSMKADLDHIFLKLRGMKSRLAATYPDAFPTGAMAETMDQRPDLESPLD
# notes: prey, AD fusion; also called Novel Protein PN29968, Similar to A. thaliana Unknown Protein BAB01990
# B22: OsPN30852 aa 45-86 (other)
# chain: RFEATTKSKLASLNEKLDILERKLEVLEVQVSSATTNPSVFN
# modifications: not fully specified
# notes: prey, AD fusion; also called Novel Protein PN30852
# Experiments:
# [1] = biological target: T1, OsE2F1 aa 100-250 (Oryza sativa); test: Y2H; output trait library
# T1 construct: bait, Gal4 DBD fusion; also called PN19758; O. sativa E2F Homolog
# In short: (§1)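 Using an automated, high-throughput yeast two-hybrid assay provided by Myriad Genetics Inc. (Salt Lake City, Utah), protein-protein interactions were detected. Against either the input trait or the output trait rice prey library, a bait clone encoding a defined amino-acid fragment of a rice protein was screened. The encoding sequences of the prey clones that were retrieved were then compared against databases by BLAST to identify the interacting proteins.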
# [2] = biological target: T2, OsS49462 aa 1-100 (Oryza sativa, UniProt Q01J96 179-278); test: Y2H; output trait library
# T2 construct: bait, Gal4 DBD fusion; also called PN20325; O. sativa Cyclin OsS49462, Fragment
# T2 sequence: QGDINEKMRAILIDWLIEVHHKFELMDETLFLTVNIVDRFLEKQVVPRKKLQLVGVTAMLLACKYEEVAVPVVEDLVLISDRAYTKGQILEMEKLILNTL
# In short: as §1
# [3] = biological target: T3, OsCHIB1 aa 10-200 (Oryza sativa); test: Y2H; input trait library
# T3 construct: bait, Gal4 DBD fusion; also called PN19651; O. sativa Chitinase, Class III
# T3 chain: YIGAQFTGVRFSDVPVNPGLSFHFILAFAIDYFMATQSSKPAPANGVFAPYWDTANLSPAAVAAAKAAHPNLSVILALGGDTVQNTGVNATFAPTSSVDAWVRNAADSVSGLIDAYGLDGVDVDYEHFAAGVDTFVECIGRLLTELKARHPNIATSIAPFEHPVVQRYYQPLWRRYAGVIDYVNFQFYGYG
# In short: as §1
# [4] = biological target: T4, OsPP2A-2 aa 1-308 (Oryza sativa, UniProt A2XN40 1-307); test: Y2H; input trait library
# T4 construct: bait, Gal4 DBD fusion; also called PN20254; O. sativa Serine/Threonine Protein Phosphatase PP2A-2, Catalytic Subunit
# In short: as §1
# [5] = biological target: T5, OsCAA90866 aa 100-250 (Oryza sativa); test: Y2H; output trait library
# T5 construct: bait, Gal4 DBD fusion; also called PN20311; O. sativa Chilling-Inducible Protein CAA90866
# T5 chain: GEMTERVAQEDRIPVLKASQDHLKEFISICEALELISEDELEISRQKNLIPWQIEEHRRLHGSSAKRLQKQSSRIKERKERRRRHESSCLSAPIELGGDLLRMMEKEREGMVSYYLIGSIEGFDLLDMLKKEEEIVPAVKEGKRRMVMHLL
# [6] = biological target: T6, OsCYCOS2 aa 50-233 (Oryza sativa, UniProt A2YH60 50-233); test: Y2H; output trait library
# T6 construct: bait, Gal4 DBD fusion; also called PN20257; O. sativa Cyclin OsCYCOS2
# T6 chain: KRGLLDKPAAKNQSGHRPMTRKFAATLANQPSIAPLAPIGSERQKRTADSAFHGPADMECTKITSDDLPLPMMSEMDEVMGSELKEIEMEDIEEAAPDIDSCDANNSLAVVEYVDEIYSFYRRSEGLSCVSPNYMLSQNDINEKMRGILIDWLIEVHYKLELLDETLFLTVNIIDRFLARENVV
# In short: as §1
# T4 sequence (A2XN40 whole entry, the tested form may be a part): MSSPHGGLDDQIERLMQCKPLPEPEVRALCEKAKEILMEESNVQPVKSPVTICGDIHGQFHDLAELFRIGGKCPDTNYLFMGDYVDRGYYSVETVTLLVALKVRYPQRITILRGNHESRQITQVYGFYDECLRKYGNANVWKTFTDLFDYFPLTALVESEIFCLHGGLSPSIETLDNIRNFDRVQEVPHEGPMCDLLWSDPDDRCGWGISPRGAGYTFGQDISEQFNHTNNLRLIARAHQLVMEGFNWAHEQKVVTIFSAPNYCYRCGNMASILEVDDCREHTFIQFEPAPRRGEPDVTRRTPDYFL
# T1 sequence (chain, as listed by the source): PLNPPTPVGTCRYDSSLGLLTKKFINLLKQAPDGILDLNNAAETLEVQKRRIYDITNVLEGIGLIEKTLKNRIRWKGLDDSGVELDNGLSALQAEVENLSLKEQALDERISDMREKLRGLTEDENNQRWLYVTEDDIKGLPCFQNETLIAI
binder,measurement,setting,value
B1,binding result,[1],binds
B2,binding result,[1],binds
B3,binding result,[2],binds
B4,binding result,[3],binds
B5,binding result,[3],binds
B6,binding result,[3],binds
"AVREPKRYYDPSPAYPAPYHQQTNRDPYAYGNTTTGGYGYAYG (other, not fully specified, prey, AD fusion) [OsPN22020 aa 128-170]",binding result,[3],binds
B7,binding result,[2],binds
B8,binding result,[2],binds
B9,binding result,[4],binds
B10,binding result,[4],binds
B11,binding result,[4],binds
B12,binding result,[4],binds
B13,binding result,[2],binds
B14,binding result,[4],binds
B15,binding result,[5],binds
B16,binding result,[2],binds
B17,binding result,[1],binds
B18,binding result,[1],binds
B19,binding result,[1],binds
B20,binding result,[6],binds
B21,binding result,[6],binds
B22,binding result,[1],binds

# From patent US20060253917A1 (published 2006)
